The text below walks through data of article PMC11194062, “The clade-specific target recognition mechanisms of plant RISCs”.

For data set [1], the target named is T1, AGO6 D623A (Arabidopsis thaliana, UniProt O48771 1-878, D623A).
T1 sequence: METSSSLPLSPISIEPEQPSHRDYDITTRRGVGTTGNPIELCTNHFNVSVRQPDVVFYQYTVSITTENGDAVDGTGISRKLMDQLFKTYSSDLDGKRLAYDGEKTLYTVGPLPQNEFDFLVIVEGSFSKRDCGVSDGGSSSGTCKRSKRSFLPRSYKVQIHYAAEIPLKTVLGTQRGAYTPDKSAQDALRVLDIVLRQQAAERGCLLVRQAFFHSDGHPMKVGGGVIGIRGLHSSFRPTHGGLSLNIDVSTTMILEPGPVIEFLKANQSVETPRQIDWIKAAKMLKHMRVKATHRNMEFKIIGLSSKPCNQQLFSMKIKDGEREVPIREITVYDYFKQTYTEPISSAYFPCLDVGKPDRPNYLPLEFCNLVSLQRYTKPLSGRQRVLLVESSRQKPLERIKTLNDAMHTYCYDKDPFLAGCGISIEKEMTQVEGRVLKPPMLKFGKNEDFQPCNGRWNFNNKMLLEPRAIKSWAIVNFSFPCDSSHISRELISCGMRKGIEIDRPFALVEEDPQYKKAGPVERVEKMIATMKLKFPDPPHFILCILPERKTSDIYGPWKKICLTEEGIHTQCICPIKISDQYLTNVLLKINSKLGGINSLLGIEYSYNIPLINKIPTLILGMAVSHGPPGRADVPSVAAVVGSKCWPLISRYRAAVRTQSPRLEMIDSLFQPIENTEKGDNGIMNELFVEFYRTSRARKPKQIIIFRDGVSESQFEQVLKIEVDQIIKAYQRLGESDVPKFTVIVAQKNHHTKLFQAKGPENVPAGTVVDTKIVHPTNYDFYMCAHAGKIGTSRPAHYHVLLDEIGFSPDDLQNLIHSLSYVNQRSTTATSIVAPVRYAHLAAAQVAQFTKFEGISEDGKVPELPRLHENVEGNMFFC
Kind of data set: filter binding; 100 mM KOAc, 18 mM HEPES pH 7.4, 3 mM Mg(OAc)2, 5 mM DTT, 0.01% IGEPAL CA-630, 0.01 mg/ml yeast tRNA; 20 pM target; 25 C, 1 h. The note with it: protein: ivt; tags: N-terminal 3xFLAG-SUMO, removed by SUMOstar elution; label: target 3' 32P-cordycepin; target 28 nt.

In data set [2] the target is T2, AGO9 D632A (Arabidopsis thaliana, UniProt Q84VQ0 1-896, D632A).
T2 sequence: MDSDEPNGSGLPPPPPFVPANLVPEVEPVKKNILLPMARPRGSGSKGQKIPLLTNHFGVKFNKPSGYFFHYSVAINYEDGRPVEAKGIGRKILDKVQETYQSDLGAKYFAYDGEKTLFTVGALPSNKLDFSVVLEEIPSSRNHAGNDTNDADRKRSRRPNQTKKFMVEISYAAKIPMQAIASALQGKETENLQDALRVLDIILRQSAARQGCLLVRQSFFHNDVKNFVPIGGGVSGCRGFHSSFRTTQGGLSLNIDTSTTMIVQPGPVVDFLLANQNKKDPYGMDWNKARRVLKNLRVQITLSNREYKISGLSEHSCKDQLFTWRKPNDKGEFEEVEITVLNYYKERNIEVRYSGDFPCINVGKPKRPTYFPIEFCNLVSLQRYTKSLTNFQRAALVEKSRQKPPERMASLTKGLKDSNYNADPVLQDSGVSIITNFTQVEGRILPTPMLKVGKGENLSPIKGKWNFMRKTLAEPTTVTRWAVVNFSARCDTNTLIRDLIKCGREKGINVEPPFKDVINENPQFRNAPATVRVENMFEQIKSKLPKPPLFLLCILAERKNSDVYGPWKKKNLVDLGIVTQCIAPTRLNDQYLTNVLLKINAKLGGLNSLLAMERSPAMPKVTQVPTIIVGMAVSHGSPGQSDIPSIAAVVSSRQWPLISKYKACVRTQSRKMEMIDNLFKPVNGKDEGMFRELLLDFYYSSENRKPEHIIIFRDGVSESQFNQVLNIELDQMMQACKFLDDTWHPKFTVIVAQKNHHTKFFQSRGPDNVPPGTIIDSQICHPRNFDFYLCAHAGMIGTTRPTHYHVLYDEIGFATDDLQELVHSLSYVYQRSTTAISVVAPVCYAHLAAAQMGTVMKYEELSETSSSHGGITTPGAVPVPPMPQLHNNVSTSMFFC
The data set is described as above. The note with it: protein: ivt; tags: N-terminal 3xFLAG-SUMO, removed by SUMOstar elution; label: target 3' 32P-cordycepin; target 28 nt.

For data set [3], the target named is T3, AGO4 D660A (Arabidopsis thaliana, UniProt Q9ZVD5 1-924, D660A).
T3 sequence: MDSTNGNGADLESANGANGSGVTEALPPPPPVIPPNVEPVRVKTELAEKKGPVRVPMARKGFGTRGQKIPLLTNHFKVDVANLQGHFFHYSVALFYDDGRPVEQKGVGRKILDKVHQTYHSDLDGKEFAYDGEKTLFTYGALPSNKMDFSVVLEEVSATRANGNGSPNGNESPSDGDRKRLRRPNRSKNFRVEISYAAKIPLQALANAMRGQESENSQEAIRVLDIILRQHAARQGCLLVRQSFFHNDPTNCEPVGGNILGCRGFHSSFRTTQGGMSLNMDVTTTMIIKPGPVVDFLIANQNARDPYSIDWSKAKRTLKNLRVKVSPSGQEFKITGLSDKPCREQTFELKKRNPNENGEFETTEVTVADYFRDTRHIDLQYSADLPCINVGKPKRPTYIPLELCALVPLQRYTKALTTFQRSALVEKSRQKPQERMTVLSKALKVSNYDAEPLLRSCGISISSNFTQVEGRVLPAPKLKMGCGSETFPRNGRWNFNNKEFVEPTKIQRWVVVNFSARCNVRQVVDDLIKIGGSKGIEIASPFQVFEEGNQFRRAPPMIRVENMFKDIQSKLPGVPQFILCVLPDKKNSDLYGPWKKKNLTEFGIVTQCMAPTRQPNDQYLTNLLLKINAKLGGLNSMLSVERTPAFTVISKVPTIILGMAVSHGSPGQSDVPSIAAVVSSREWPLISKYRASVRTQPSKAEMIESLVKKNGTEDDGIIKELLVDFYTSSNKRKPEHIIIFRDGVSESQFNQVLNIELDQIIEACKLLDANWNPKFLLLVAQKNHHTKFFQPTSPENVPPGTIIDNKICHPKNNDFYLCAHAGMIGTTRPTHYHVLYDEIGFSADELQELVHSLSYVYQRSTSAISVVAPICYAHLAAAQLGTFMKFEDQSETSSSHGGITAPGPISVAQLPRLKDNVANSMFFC
The data set is described as above. The note with it: protein: ivt, tags: N-terminal 3xFLAG-SUMO, removed by SUMOstar elution, label: target 3' 32P-cordycepin; for Kd: target 28 nt.

For data set [4], the target named is T3, AGO4 D660A. Kind of data set: filter binding; did not bind at all; 100 mM KOAc, 18 mM HEPES pH 7.4, 3 mM Mg(OAc)2, 5 mM DTT, 0.01% IGEPAL CA-630, 0.01 mg/ml yeast tRNA; 20 pM target; 25 C, 1 h. The conditions noted are these: protein: ivt; tags: N-terminal 3xFLAG-SUMO, removed by SUMOstar elution; label: target 3' 32P-cordycepin; only g2-g8 paired.
Data set [5] addresses T3, AGO4 D660A. Kind of data set: filter binding; 100 mM KOAc, 18 mM HEPES pH 7.4, 3 mM Mg(OAc)2, 5 mM DTT, 0.01% IGEPAL CA-630, 0.01 mg/ml yeast tRNA; 20 pM target; 25 C, 1 h. The conditions noted are these: protein: ivt; tags: N-terminal 3xFLAG-SUMO, removed by SUMOstar elution; label: target 3' 32P-cordycepin; mismatch at g20-g21.

B1: 24-nt 5'A guide / t1T DNA (DNA:RNA)
RNA: AGAGGUAGAUCCUUGUAUAGUCUC
DNA: ACGAGACTATACAAGGATCTACCTCTCAA
modifications: guide 3' 2'-O-methyl
B1: the values for the Kd in data set [1], in data set [2] and in data set [3] were 0.0073 nM, 2.12 pM and 0.93 pM, respectively.

B2: 24-nt 5'A guide / seed-only (2-8) DNA (DNA:RNA)
RNA: AGAGGUAGAUCCUUGUAUAGUCUC
DNA: ACCTCTGATATGTTCCTACTACCTCTCAA
modifications: guide 3' 2'-O-methyl
With B2, in data set [4], the binding result was “no binding”.

B3: 24-nt 5'A guide / mm20-21 DNA (DNA:RNA)
RNA: AGAGGUAGAUCCUUGUAUAGUCUC
DNA: ACGAGTGTATACAAGGATCTACCTCTCAA
modifications: guide 3' 2'-O-methyl
For B3, in data set [3] (mismatch at g20-g21), the binding result was “binds”.

B4: 24-nt 5'A guide / mm6-7 DNA (DNA:RNA)
RNA: AGAGGUAGAUCCUUGUAUAGUCUC
DNA: ACGAGACTATACAAGGATCATCCTCTCAA
modifications: guide 3' 2'-O-methyl
Consider B4, for which the binding result in data set [3] (mismatch at g6-g7) is on record as “binds”.

B5: 24-nt 5'A guide / mm23-24 DNA (DNA:RNA)
RNA: AGAGGUAGAUCCUUGUAUAGUCUC
DNA: ACCTGACTATACAAGGATCTACCTCTCAA
modifications: guide 3' 2'-O-methyl
On to B5, for which, in data set [3] (mismatch at g23-g24), the binding result is reported as “binds”.

B6: 24-nt 5'A guide / t1U RNA (dsRNA)
RNA 1: AGAGGUAGAUCCUUGUAUAGUCUC
RNA 2: ACGAGACUAUACAAGGAUCUACCUCUCAA
modifications: guide 3' 2'-O-methyl
Turning to B6, the Kd in data set [1] was determined as 0.0504 nM; in data set [2], 12.7 pM; in data set [3], 1.71 pM.

B7: 24-nt 5'A guide / seed-only (2-8) RNA (dsRNA)
RNA 1: AGAGGUAGAUCCUUGUAUAGUCUC
RNA 2: ACCUCUGAUAUGUUCCUACUACCUCUCAA
modifications: guide 3' 2'-O-methyl
As for B7, the binding result in data set [4] is recorded as “no binding”.

B8: 24-nt 5'A guide / mm8-9 DNA (DNA:RNA)
RNA: AGAGGUAGAUCCUUGUAUAGUCUC
DNA: ACGAGACTATACAAGGAAGTACCTCTCAA
modifications: guide 3' 2'-O-methyl
B8: the binding result in data set [3] (mismatch at g8-g9) is “binds”.

B9: 24-nt 5'A guide / mm20-21 RNA (dsRNA)
RNA 1: AGAGGUAGAUCCUUGUAUAGUCUC
RNA 2: ACGAGUGUAUACAAGGAUCUACCUCUCAA
modifications: guide 3' 2'-O-methyl
Take B9: the binding signal in data set [5] is ~10 fold lower affinity than t1U.
